According to IntAct's records for PubMed 9701578:

B1: Receptor protein kinase CLAVATA1 (Arabidopsis thaliana (Mouse-ear cress)), Q9SYQ8 (parent)
chain: MAMRLLKTHLLFLHLYLFFSPCFAYTDMEVLLNLKSSMIGPKGHGLHDWIHSSSPDAHCSFSGVSCDDDARVISLNVSFTPLFGTISPEIGMLTHLVNLTLAANNFTGELPLEMKSLTSLKVLNISNNGNLTGTFPGEILKAMVDLEVLDTYNNNFNGKLPPEMSELKKLKYLSFGGNFFSGEIPESYGDIQSLEYLGLNGAGLSGKSPAFLSRLKNLREMYIGYYNSYTGGVPPEFGGLTKLEILDMASCTLTGEIPTSLSNLKHLHTLFLHINNLTGHIPPELSGLVSLKSLDLSINQLTGEIPQSFINLGNITLINLFRNNLYGQIPEAIGELPKLEVFEVWENNFTLQLPANLGRNGNLIKLDVSDNHLTGLIPKDLCRGEKLEMLILSNNFFFGPIPEELGKCKSLTKIRIVKNLLNGTVPAGLFNLPLVTIIELTDNFFSGELPVTMSGDVLDQIYLSNNWFSGEIPPAIGNFPNLQTLFLDRNRFRGNIPREIFELKHLSRINTSANNITGGIPDSISRCSTLISVDLSRNRINGEIPKGINNVKNLGTLNISGNQLTGSIPTGIGNMTSLTTLDLSFNDLSGRVPLGGQFLVFNETSFAGNTYLCLPHRVSCPTRPGQTSDHNHTALFSPSRIVITVIAAITGLILISVAIRQMNKKKNQKSLAWKLTAFQKLDFKSEDVLECLKEENIIGKGGAGIVYRGSMPNNVDVAIKRLVGRGTGRSDHGFTAEIQTLGRIRHRHIVRLLGYVANKDTNLLLYEYMPNGSLGELLHGSKGGHLQWETRHRVAVEAAKGLCYLHHDCSPLILHRDVKSNNILLDSDFEAHVADFGLAKFLVDGAASECMSSIAGSYGYIAPEYAYTLKVDEKSDVYSFGVVLLELIAGKKPVGEFGEGVDIVRWVRNTEEEITQPSDAAIVVAIVDPRLTGYPLTSVIHVFKIAMMCVEEEAAARPTMREVVHMLTNPPKSVANLIAF
partner: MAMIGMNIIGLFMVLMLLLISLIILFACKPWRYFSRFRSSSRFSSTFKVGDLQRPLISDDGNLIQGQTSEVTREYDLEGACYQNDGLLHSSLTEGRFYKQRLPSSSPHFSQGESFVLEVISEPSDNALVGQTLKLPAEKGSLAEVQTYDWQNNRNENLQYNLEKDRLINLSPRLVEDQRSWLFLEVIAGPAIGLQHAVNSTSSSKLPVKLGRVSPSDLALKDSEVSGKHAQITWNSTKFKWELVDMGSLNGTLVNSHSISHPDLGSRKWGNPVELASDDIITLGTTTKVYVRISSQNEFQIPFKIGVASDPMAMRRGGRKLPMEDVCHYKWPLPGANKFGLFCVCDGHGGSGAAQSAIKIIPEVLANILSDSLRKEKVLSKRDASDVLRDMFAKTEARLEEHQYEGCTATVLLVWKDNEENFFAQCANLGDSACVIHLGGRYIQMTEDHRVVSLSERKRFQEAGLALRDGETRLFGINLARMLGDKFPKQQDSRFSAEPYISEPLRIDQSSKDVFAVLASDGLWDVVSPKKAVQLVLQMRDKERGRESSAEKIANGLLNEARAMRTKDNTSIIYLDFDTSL

Variants of: B1
Details: with KAPP

Variant	effect of a mutation on the interaction
K720E	disrupting interaction
